Measurements from publication PMC8967979 (Frontiers in Immunology, 2022).

Target: WH01 RBD (residues 333-530) (SARS-CoV-2 Wuhan-Hu-01 (WH01), UniProt P0DTC2)
Experiment: crystal structure
Settings: both partners purified

B1: Nb22 (VHH)
VHH: QVQLVESGGNLVQPGGSLRLSCAASGGTLASFAVGWFRQAPGKEREGVSCIDVINRANYADSVKGRFTISRDSAKNTVYLQMNSLEPEDTAVYSCAAHFVPPGSRLRGCLVNELYNYWGQGTQVTVSS
binding result: binds
